Data: paper doi:10.1101/2025.08.27.672506

Experiments:
[1] = target: wild-type ectodomain of HA from A/swine/Hong Kong/2106/98 (H9N2) (influenza A virus A/swine/Hong Kong/2106/98 (H9N2)); experiment: SEC
[2] = target: wild-type ectodomain of HA from /turkey/Ontario/6118/1968 (H8N4) (influenza A virus /turkey/Ontario/6118/1968 (H8N4)); experiment: SEC
[3] = target: wild-type ectodomain of HA from A/gull/Maryland/704/1977 (H13N6) (influenza A virus A/gull/Maryland/704/1977 (H13N6)); experiment: SEC
[4] = target: wild-type H1/Mal07 HA ectodomain with the Foldon tag (influenza A virus A/Malaysia/1706215/2007 (H1N1) | T4); experiment: SEC
[5] = target: wild-type H1/Cal09 HA ectodomain with the Foldon trimerization tag (influenza A virus A/California/04/2009 (H1N1) | T4); experiment: SEC
[6] = target: wild-type H1/Cal09 HA ectodomain with the Foldon trimerization tag (influenza A virus A/California/04/2009 (H1N1) | T4); experiment: cryo-EM 2D classification
[7] = target: wild-type H9/HK98 HA ectodomain with the Foldon tag (influenza A virus A/swine/Hong Kong/2106/98 (H9N2) | T4); experiment: SEC

“wild-type ectodomain of HA from A/swine/Hong Kong/2106/98 (H9N2) (domain or fragment)” was tested, and the stoichiometry N [1] was 3.
“wild-type ectodomain of HA from /turkey/Ontario/6118/1968 (H8N4) (domain or fragment)” was tested, and the stoichiometry N [2] was 3.
In the case of “wild-type ectodomain of HA from A/gull/Maryland/704/1977 (H13N6) (domain or fragment)”, the stoichiometry N [3] is reported as 3.
In the case of “wild-type H1/Mal07 HA ectodomain with the Foldon tag”, the stoichiometry N [4] is reported as 3.
For “wild-type H1/Cal09 HA ectodomain with the Foldon trimerization tag”, the stoichiometry N [5] was 3 and the stoichiometry N [6] was 3.
Substance “wild-type H9/HK98 HA ectodomain with the Foldon tag” has a stoichiometry N [7] of 3.
